Measured values published in patent US12558403B2, “Anti-tumor fusion protein, preparation method therefor and application thereof” (GUANGDONG TAIHE MEDICINE SCIENCE & TECHNOLOGY CO., LTD, priority 2020, dated 2026).
Marks after values point to notes of the source that are not given here.

Assays:
lung cancer cells H460 = assay: Killing of tumor cells by stimulated T cells, CytoTox 96 non-radioactive cytotoxicity assay; settings: T cells stimulated with 40 μg/mL for 4 days, effector-target ratio 20:1
Method: CytoTox 96 non-radioactive cytotoxicity assay was used to detect the killing effect of L1, L2, D1 and D2 polypeptides (40 μg/mL) on lung cancer cells H460 after stimulating human T lymphocytes for 4 days, respectively.

[1] = system: breast cancer cell line MDA-MB-231; assay: as above; type: cell-based, human; settings: effector-target ratio 30:1
Method: (§1) Three protein concentrations (20 μg/mL, 40 μg/mL, 80 μg/mL) of TAT-SHP2-N-SH2 fusion protein were selected to stimulate human T lymphocytes and the killing effect on tumor cells MDA-MB-231 and SW480, respectively at an effector-target ratio of 30:1 was detected by CytoTox 96 non-radioactive cytotoxicity assay.

[2] = system: colon cancer cell line SW480; assay: as above; type: cell-based, human; settings: effector-target ratio 30:1
Method: as §1

T lymphocytes [3] = assay: T lymphocyte proliferation detected by CFSE; type: cell-based; settings: 80 μg/mL, 3 days, control group 62.83%
Method: Compared with the control group, p>0.05 has no statistical significance.
To test whether recombinant TAT-N-SH2 fusion protein and L1 (TAT-SHP2-C-SH2) polypeptide can enhance the proliferation of T lymphocytes, we used 80 μg/mL TAT-SHP2-N-SH2 fusion protein and TAT-SHP2-C-SH2 polypeptide to stimulate T lymphocytes for 3 days, respectively, the proliferation of T lymphocytes was detected by CFSE.

T lymphocytes [4] = assay: T lymphocyte apoptosis, Annexin V-FITC/PI flow cytometry; type: cell-based; settings: 80 μg/mL, 3 days, PD-L1 coated plate, compared with control group
Method: The resuspended cells are added to different groups to treat untreated groups SHP2-NC, SHP2-N-SH2 (80 μg/mL), TAT-SHP2-C-SH2 polypeptide (80 μg/mL), and then continues to culture on EASY-T stimulated plates for 3 d (50 ng of PD-L1 antibody is added 3 hours before adding the cell mixture to coat a 24-well plate at 37° C.), and the cells are collected, detection by flow cytometry after FITC and PI staining; e According to the results of flow cytometry, the proportion of apoptotic cells is counted, compared with the control group, *p<0.05 or **p<0.01.
T lymphocytes were stimulated with recombinant TAT-N-SH2 fusion protein and L1 polypeptide for 3 days and the apoptosis of T lymphocytes in different treatment groups was detected by flow cytometry. […] FIG. 13e, according to the results of flow cytometry, the proportion of apoptotic cells was counted, compared with the control group, *p<0.05 or **p<0.01.

ERK, AKT and JNK = assay: Phosphorylation of ERK, AKT and JNK in T lymphocytes, Western-blot; type: cell-based; settings: T lymphocytes stimulated 3 days, compared with untreated group
Method: TAT-SHP2-N-SH2 fusion protein treatment group; c. TAT-SHP2 C-SH2 polypeptide treatment group; b, d. According to Western-blot results, with β-actin as an internal reference, grayscale analysis of the phosphorylation expression of JNK, AKT and ERK proteins mediated by T lymphocytes is performed. Unpaired t-test, compared with negative control, **p<0.01, NS has no statistical difference.
The T lymphocytes stimulated by recombinant TAT-N-SH2 fusion protein and L1 (TAT-SHP2-C-SH2) polypeptide for 3 days were collected to detect the changes in the phosphorylation levels of ERK, AKT and JNK molecules.

IL-2 = assay: Cytokine IL-2 secreted by T lymphocytes; type: cell-based; settings: T lymphocytes stimulated 3 days, compared with control group
Description: The T lymphocytes stimulated by recombinant TAT-N-SH2 fusion protein and L1 polypeptide for 3 days were collected to detect the level of cytokine IL-2 secreted.

MDA-MB-231 = assay: Direct killing of tumor cells, zenCell owl live cell imaging; type: cell-based; settings: 20, 40, 80 μg/mL, no T cells
Method: (§2) In order to detect whether the recombinant TAT-N-SH2 fusion protein and L1 polypeptide have direct killing effect on tumor cells, we co-cultured different concentrations (20 μg/mL, 40 μg/mL, 80 μg/mL) of recombinant TAT-N-SH2 fusion protein and L1 polypeptide with tumor cells MDA-MB-231 and SW480, and applied zenCell owl live cell dynamic imaging analysis system to observe its effect on tumor cells in real time.

SW480 = assay: as above; type: cell-based; settings: 20, 40, 80 μg/mL, no T cells
Method: as §2

MC38 colon cancer [5] = assay: MC38 colon cancer mouse subcutaneous tumor-bearing model; type: in vivo, mice
Description: A subcutaneous tumor model of MC38 colon cancer mice was established.

EMT breast cancer = EMT breast cancer mouse subcutaneous tumor-bearing model; type: in vivo, mice
Method: Tumor weight of mice in different administration groups after 21 d dissection; b. Tumor size; Unpaired t-test, compared with control group, *p<0.05, **p<0.01, ***p<0.001.
We further evaluated the effects of TAT-SHP2SHP2-N-SH2 fusion protein and TAT-SHP2SHP2-C-SH2 polypeptide on tumor growth in mice by establishing a subcutaneous tumor-bearing model of EMT breast cancer mice. We used TAT-SHP2SHP2-C-SH2 polypeptide at 5 μg/mouse (C5), 10 μg/mouse (C10), 15 μg/mouse (C15) and 2 μg/mouse (N2), 5 μg/mouse (N5), 10 μg/mouse (N10), 15 μg/mouse (N15) of TAT-SHP2SHP2-N-SH2 fusion protein were administered by intraperitoneal injection and at the same time, the dose of 50 μg/mouse αPD-1 antibody (αPD-1) was used as the positive control drug.

MC38 colon cancer [6] = assay: MC38 colon cancer in immunodeficient nude mice; type: in vivo
Description: Tumor weight of mice after 30 d dissection; b. Tumor size; c. Tumor growth curve; Unpaired t-test, compared with control group, NS: no statistical difference.
In order to exclude the direct inhibitory effect of recombinant TAT-N-SH2 fusion protein and L1 (TAT-SHP2-C-SH2) polypeptide on tumors, we selected immunodeficient nude mice to inoculate MC38 colon cancer tumors, and started administration 14 days after tumor formation, 4 days to measure the tumor volume, after 30 days, the mice were sacrificed for dissection, and the tumor weight was measured.

EMT-6 breast cancer = EMT-6 breast cancer in immune-deficient nude mice; type: in vivo; settings: groups C5/N5, once every other day, 8 doses
Description: Tumor weight of mice after 21 d dissection; b. Tumor size; c. Tumor growth curve; NS: no statistical difference.
At the same time, we selected immune-deficient nude mice to inoculate EMT-6 breast cancer tumors. After 5 days of tumor formation, they were randomly divided into three groups with 6 mice in each group. Start the administration, the administration dose is the same as above, administered once every other day for a total of 8 doses, 4 days to measure tumor size, the growth curve was drawn, and the mice were sacrificed to measure the body weight on day 21.

PD-L1-KO-EMT6 = assay: PD-L1 knockout EMT-6 breast cancer xenografts in BALB/c mice; type: in vivo
Description: Tumor weight of mice after 23 d dissection; b. Tumor size; c. Tumor growth curve; Unpaired t-test, compared with control group, *P<0.05, **P<0.01, ***P<0.001.
Recombinant TAT-N-SH2 fusion protein and L1 (TAT-SHP2-C-SH2) polypeptide target the ITIM motif of inhibitory receptors. […] To this end, we constructed a breast cancer EMT-6 cell line stably knocked out PD-L1 (PD-L1-KO-EMT6), inoculated into the mouse mammary fat pad, and the recombinant TAT-N-SH2 fusion protein (N5) and TAT-SHP2-C-SH2 polypeptide (C5) were administered by intraperitoneal injection at 5 μg/mouse, respectively and at the same time, a dose of 50 μg/mouse αPD-1 antibody (αPD-1) was used as the control drug.

[7] = T cells stimulated with 20 μg/ml
[8] = T cells stimulated with 40 μg/ml
[9] = T cells stimulated with 80 μg/ml
[10] = Table 4, 1.25 μg/mouse intraperitoneal, 8 administrations
[11] = Table 4, 2.5 μg/mouse intraperitoneal, 8 administrations
[12] = Table 4, 5 μg/mouse intraperitoneal, 8 administrations
[13] = Table 4, 10 μg/mouse intraperitoneal, 8 administrations
[14] = Table 5, 5 μg/mouse intraperitoneal

CC(C)C[C@@H](NC(=O)[C@H](NC(=O)[C@@H](Cc1ccccc1)NC(=O)[C@@H](CC(=O)O)NC(=O)CNC(=O)[C@H]1CCCN1C(=O)[C@@H](Cc1c[nH]cn1)NC(=O)[C@@H](CO)NC(=O)[C@@H](CCC(N)=O)NC(=O)[C@@H](CO)NC(=O)[C@@H](CCC(=O)O)NC(=O)[C@@H](CCCNC(=N)N)NC(=O)[C@H](NC(=O)[C@H]1CCCN1C(=O)[C@H]1CCCN1C(=O)[C@@H](CCCNC(=N)N)NC(=O)[C@@H](CCCNC(=N)N)NC(=O)[C@@H](CCCNC(=N)N)NC(=O)[C@@H](CCC(N)=O)NC(=O)[C@@H](CCCNC(=N)N)NC(=O)[C@@H](CCCNC(=N)N)NC(=O)[C@@H](CCCCN)NC(=O)[C@@H](CCCCN)NC(=O)[C@@H](CCCNC(=N)N)NC(=O)CNC(=O)[C@H](N)Cc1ccc(O)cc1)C(C)C)C(C)C)C(=O)O [D1]
Cytotoxicity (%) (lung cancer cells H460): 39.43 ± 1.31 %

CC(C)C[C@H](NC(=O)[C@@H](NC(=O)[C@H](Cc1ccccc1)NC(=O)[C@H](CC(=O)O)NC(=O)CNC(=O)[C@@H]1CCCN1C(=O)[C@H](Cc1c[nH]cn1)NC(=O)[C@H](CO)NC(=O)[C@H](CCC(N)=O)NC(=O)[C@H](CO)NC(=O)[C@H](CCC(=O)O)NC(=O)[C@H](CCCNC(=N)N)NC(=O)[C@@H](NC(=O)[C@@H]1CCCN1C(=O)[C@@H]1CCCN1C(=O)[C@H](CCCNC(=N)N)NC(=O)[C@H](CCCNC(=N)N)NC(=O)[C@H](CCCNC(=N)N)NC(=O)[C@H](CCC(N)=O)NC(=O)[C@H](CCCNC(=N)N)NC(=O)[C@H](CCCNC(=N)N)NC(=O)[C@H](CCCCN)NC(=O)[C@H](CCCCN)NC(=O)[C@H](CCCNC(=N)N)NC(=O)CNC(=O)[C@@H](N)Cc1ccc(O)cc1)C(C)C)C(C)C)C(=O)O [L1, YGRKKRRQRRR-PP-VRESQSHPGDFVL]
Cytotoxicity (%) MDA-MB-231 [1, 7]: 5.933 ± 3.955^ns % | Cytotoxicity (%) MDA-MB-231 [1, 8]: 20.55 ± 1.157 % | Cytotoxicity (%) MDA-MB-231 [1, 9]: 34.8 ± 7.424 % | Cytotoxicity (%) SW480 [2, 7]: 20.24 ± 8.943^ns % | Cytotoxicity (%) SW480 [2, 8]: 31.38 ± 3.779 % | Cytotoxicity (%) SW480 [2, 9]: 40.19 ± 8.373 % | Cytotoxicity (%) (lung cancer cells H460): 33.23 ± 2.32 %

B1: TAT-SHP2-N-SH2 fusion protein: TAT penetrating peptide connected to N-terminal SH2 domain of SHP2 through glycine and serine (TAT-Gly-Ser-N-SH2); SEQ ID NO.:4 (protein)
chain: YGRKKRRQRRRGSRWFHPNITGVEAENLLLTRGVDGSFLARPSKSNPGDFTLSVRRNGAVTHIKIQNTGDYYDLYGGEKFATLAELVQYYMEHHGQLKEKNGDVIELKYPLN
modifications: the fusion protein
proliferation rate of T lymphocytes (T lymphocytes [3]): 61.05% | apoptosis of T lymphocytes (T lymphocytes [4]): significantly decreased | phosphorylation levels of ERK, AKT and JNK (ERK, AKT and JNK): the expression levels of p-ERK and p-AKT in the TAT-SHP2-N-SH2 fusion protein stimulation group have the most obvious changes | level of IL-2 secreted by T lymphocytes (IL-2): significantly increased | direct toxic effect on tumor cells (MDA-MB-231): no direct toxic effect | direct toxic effect on tumor cells (SW480): no direct toxic effect | Cytotoxicity (%) MDA-MB-231 [1, 7]: 15.11 ± 6.483^ns % | Cytotoxicity (%) MDA-MB-231 [1, 8]: 12.55 ± 3.037 % | Cytotoxicity (%) MDA-MB-231 [1, 9]: 21.78 ± 3.021 % | Cytotoxicity (%) SW480 [2, 7]: 23.51 ± 1.432 % | Cytotoxicity (%) SW480 [2, 8]: 44.42 ± 5.78 % | Cytotoxicity (%) SW480 [2, 9]: 50.64 ± 2.068 % | Tumor inhibition rate % (MC38 colon cancer [5]; [10]): 55.3% | Tumor weight (MC38 colon cancer [5]; [10]): 0.36 ± 0.11 g | Tumor inhibition rate % (MC38 colon cancer [5]; [11]): 53.5% | Tumor weight (MC38 colon cancer [5]; [11]): 0.38 ± 0.11 g | Tumor inhibition rate % (MC38 colon cancer [5]; [12]): 80.9% | Tumor weight (MC38 colon cancer [5]; [12]): 0.16 ± 0.03 g | Tumor inhibition rate % (MC38 colon cancer [5]; [13]): 57.8% | Tumor weight (MC38 colon cancer [5]; [13]): 0.34 ± 0.08 g | Tumor inhibition rate % (MC38 colon cancer [5]; [14]): 77.1% | Tumor weight (MC38 colon cancer [5]; [14]): 0.26 ± 0.07 g | Tumor inhibition rate % (EMT breast cancer; 2 μg/mouse intraperitoneal): 54.9% | Tumor weight (g) (EMT breast cancer; 2 μg/mouse intraperitoneal): 0.56 ± 0.11* g | Tumor inhibition rate % (EMT breast cancer; 5 μg/mouse intraperitoneal): 70.3% | Tumor weight (g) (EMT breast cancer; 5 μg/mouse intraperitoneal, dissection after 21 d): 0.37 ± 0.10** g | Tumor inhibition rate % (EMT breast cancer; 10 μg/mouse intraperitoneal): 63% | Tumor weight (g) (EMT breast cancer; 10 μg/mouse intraperitoneal): 0.46 ± 0.12** g | Tumor inhibition rate % (EMT breast cancer; 15 μg/mouse intraperitoneal): 47.9% | Tumor weight (g) (EMT breast cancer; 15 μg/mouse intraperitoneal): 0.64 ± 0.15* g | Tumor inhibition rate % (MC38 colon cancer [6]; groups C5/N5): 9.9% | Tumor weight (g) (MC38 colon cancer [6]; groups C5/N5, sacrificed after 30 days): 0.25 ± 0.06^ns g | Tumor inhibition rate % (EMT-6 breast cancer): 8.3% | Tumor weight (g) (EMT-6 breast cancer; day 21): 0.82 ± 0.13^ns g | Tumor inhibition rate % (PD-L1-KO-EMT6; 5 μg/mouse intraperitoneal): 60.5% | Tumor weight (g) (PD-L1-KO-EMT6; 5 μg/mouse intraperitoneal, dissection after 23 d): 0.34 ± 0.20** g | effect on growth of PD-L1-KO-EMT6 tumors (PD-L1-KO-EMT6; N5 and C5 5 μg/mouse, αPD-1 antibody 50 μg/mouse): significantly inhibit the growth of PD-L1-KO-EMT6 tumors
